Measurements reported in patent US20040197334A1 (TECHNION RESEARCH AND DEVELOPMENT FOUNDATION, published 2004).
Several values for one entry are separate records, joined by “and”; a condition that tells them apart may be missing. Equal entries are not always repeated. No end group written: not given here.

Assays:
[1] = target: streptavidin (UniProt P22629 37-163); test: ELISA, FIG. 1b
[2] = target: T1, human P-glycoprotein (Pgp), 170 kDa, encoded by the mdr1 gene, on the surface of MDR human carcinoma cells … (human, UniProt P08183 1-1280); test: cell-based or functional assay
[3] = target: T1, human P-glycoprotein (Pgp), 170 kDa, …; test: flow cytometry on MDR, Pgp-overexpressing 2780^ADR cells, A2 scFv 50 µg/ml
[4] = target: T2, biotinylated target Pgp-derived peptide having the amino acid sequence of SEQ ID NO:1 (GEMTDIFANAGNL) (human, also: biotinylated, position not given here); test: saturation ELISA on plate-bound biotinylated peptide; the filing calls the value the affinity constant
T2 construct: also called target peptide
T2 peptide: GEMTDIFANAGNL

[5] = target: T2, biotinylated target Pgp-derived peptide …; test: competition radioimmunoassay, cold A2 scFv against [125I]-labeled A2 scFv on plate-bound peptide; the filing calls the value the affinity constant

T1 sequence (P08183 whole entry): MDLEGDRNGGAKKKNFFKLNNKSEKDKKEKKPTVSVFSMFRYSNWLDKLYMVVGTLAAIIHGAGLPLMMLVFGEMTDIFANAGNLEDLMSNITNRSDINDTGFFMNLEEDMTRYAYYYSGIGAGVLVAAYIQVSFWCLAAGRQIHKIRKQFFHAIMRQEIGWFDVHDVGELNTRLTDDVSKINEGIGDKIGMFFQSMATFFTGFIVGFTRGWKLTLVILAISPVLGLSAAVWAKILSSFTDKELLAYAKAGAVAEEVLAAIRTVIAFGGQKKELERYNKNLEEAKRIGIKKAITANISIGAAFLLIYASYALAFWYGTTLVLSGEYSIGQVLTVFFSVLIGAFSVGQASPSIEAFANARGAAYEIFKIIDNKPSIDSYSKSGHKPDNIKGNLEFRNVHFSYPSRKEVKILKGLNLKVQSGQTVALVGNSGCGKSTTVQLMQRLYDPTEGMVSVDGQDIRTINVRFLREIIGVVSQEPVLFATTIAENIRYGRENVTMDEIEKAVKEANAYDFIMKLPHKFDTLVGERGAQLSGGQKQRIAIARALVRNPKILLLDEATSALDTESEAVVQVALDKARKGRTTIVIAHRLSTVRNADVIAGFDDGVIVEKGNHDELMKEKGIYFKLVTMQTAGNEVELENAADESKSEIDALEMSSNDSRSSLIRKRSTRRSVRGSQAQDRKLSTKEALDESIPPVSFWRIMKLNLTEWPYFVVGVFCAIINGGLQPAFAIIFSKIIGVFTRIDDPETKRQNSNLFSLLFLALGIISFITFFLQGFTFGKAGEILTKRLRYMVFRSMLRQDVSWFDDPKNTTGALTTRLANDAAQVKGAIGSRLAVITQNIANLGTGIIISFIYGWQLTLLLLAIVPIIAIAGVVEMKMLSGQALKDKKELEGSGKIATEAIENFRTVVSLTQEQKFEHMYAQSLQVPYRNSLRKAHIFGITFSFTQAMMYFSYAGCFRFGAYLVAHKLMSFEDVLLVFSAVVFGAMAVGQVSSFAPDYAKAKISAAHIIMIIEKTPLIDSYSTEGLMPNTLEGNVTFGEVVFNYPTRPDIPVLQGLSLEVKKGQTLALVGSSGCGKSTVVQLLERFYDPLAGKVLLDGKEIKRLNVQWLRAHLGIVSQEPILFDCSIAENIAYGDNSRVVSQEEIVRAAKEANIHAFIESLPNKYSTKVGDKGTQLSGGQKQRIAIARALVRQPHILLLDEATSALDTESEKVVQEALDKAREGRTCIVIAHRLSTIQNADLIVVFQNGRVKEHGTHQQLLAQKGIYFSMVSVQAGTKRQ
streptavidin, sequence (P22629 37-163 limits assumed): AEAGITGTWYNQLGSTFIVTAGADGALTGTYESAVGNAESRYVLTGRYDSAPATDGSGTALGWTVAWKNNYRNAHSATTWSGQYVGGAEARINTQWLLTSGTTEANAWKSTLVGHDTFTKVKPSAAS

B1: A2 single-chain Fv (scFv) (scFv)
scFv: QVQLQQSGPDLVKPGASVKISCKASGYSFTGYYMHWVKQSHGKSLEWIGRANPNNGGTSYNQKFKGKAILTVDKSSSTAYMELRSLTSEDSAVYYCARWDGAYWGQGTLVTVSSGGGGSGGGGSGGGGSDVVMTQTPLSLPVSLGDQASISCRSSQSIVHSNGNTYLEWYLQKPGQSPKLLIYKVSNRFSGVPDRFSGSGSGTDFTLKISRVEAEDLGVYYCFQGSHVPFTFGSGTKLELKEQKLISEEDLNHHHHHH
notes: Soluble monomeric scFv of about 30 kDa, expressed in E. coli BL21 and purified from the periplasm; In the radioimmunoassay the tracer was labeled with 125I by the Bolton-Hunter reagent; also called A2 scFv; A2 scFv antibody
binding result [1]: no binding
concentration of A2 scFv that inhibits 50% drug-efflux activity (IC50), calcein accumulation in 2780^ADR cells [2]: ~65 µg/ml and ~2.6 µM
fold increase in fluorescent intensity [3]: 10 fold
EC50 [4]: ~150 nM
IC50 [5]: ~130 nM
